± gives the standard deviation of the averaged measurements.
B1: library; a variant is named by its letters at N, in order (parent)
chain: GCUGUCACCGGAAUACCAGCAUCGUCUUGAUGCCCUUGGAAGUCCGGUCUGAUGAGUCCNNNNNGGACGAAACAGC

What was measured:
theophylline [1] = variants of: B1; experiment: FACS-Seq fitted mean relative fluorescence mCherry/BFP without ligand (log10 relative fluorescence); higher = higher reporter protein expression; conditions: HEK293T, ligand present: no
Protocol: (§1)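 Hammerhead (sTRSV) ribozyme switch libraries with a ligand aptamer grafted on stem I and a randomized N4-6 loop II, cloned into the 3' UTR of mCherry and transiently transfected into HEK293T cells; RNA-Seq 72 h post transfection with ligand added 1 h before transfection; RNA read count / plasmid DNA read count normalized to the non-cleaving sTRSVctl (x100), log10; sequences with >100 DNA reads. FACS-Seq: lentiviral library sorted into 6 bins after 48 h ligand, log-normal fit mean of mCherry/BFP scaled to controls. Printed sequences are partial switch sequences.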

theophylline [2] = variants of: B1; experiment: normalized RNA/DNA level with ligand (relative to sTRSVctl = 100) (log10 (% of sTRSVctl)); higher = less ribozyme self-cleavage, higher mRNA level; conditions: ligand concentration (+) RNA-Seq: 5 mM, HEK293T, reporter: mCherry (pCS4076), ligand present: yes
Protocol: as §1

theophylline [3] = variants of: B1; experiment: normalized RNA/DNA level without ligand (relative to sTRSVctl = 100) (log10 (% of sTRSVctl)); higher = less ribozyme self-cleavage, higher mRNA level; conditions: HEK293T, reporter: mCherry (pCS4076), ligand present: no
Protocol: as §1

theophylline [4] = variants of: B1; experiment: FACS-Seq fitted mean relative fluorescence mCherry/BFP with ligand (log10 relative fluorescence); ligand concentration (+) FACS-Seq: 1 mM; higher = higher reporter protein expression; conditions: HEK293T, ligand present: yes
Protocol: as §1

Variant	FACS-Seq fitted mean (log10) (theophylline [1])	normalized RNA/DNA level with ligand (log10) (theophylline [2])	normalized RNA/DNA level without ligand (log10) (theophylline [3])	FACS-Seq fitted mean (log10) (theophylline [4])
AAGUC	0.771 ± 0.032	1.96 ± 0.045	1.91 ± 0.1	0.866 ± 0.079
AAGUA	0.448 ± 0.1	2 ± 0.064	1.63 ± 0.12	0.35 ± 0.062
AAGUU	0.341 ± 0.057	1.939 ± 0.0073	1.75 ± 0.073	0.39 ± 0.035
AAGUG	0.678 ± 0.085	1.96 ± 0.04	1.79 ± 0.074	0.763 ± 0.076
AAACA	-0.0142 ± 0.16	1.9113 ± 0.00046	1.72 ± 0.14	0.172 ± 0.072
AAACC	0.153 ± 0.14	1.96 ± 0.097	1.91 ± 0.14	0.18 ± 0.0037
AAACU	0.552 ± 0.079	1.97 ± 0.093	1.79 ± 0.033	0.604 ± 0.0015
AAACG	0.558 ± 0.061	2 ± 0.03	1.84 ± 0.12	0.652 ± 0.062
GAGUU	0.55 ± 0.013	1.89 ± 0.025	1.6731 ± 0.00032	0.742 ± 0.063
CAGGU	0.996 ± 0.18	2 ± 0.03	1.96 ± 0.041	0.848 ± 0.048
CAGGC	0.86 ± 0.039	2.06 ± 0.046	1.95 ± 0.03	0.813 ± 0.041
CAGGA	0.706 ± 0.028	2.01 ± 0.082	1.62 ± 0.25	0.799 ± 0.045
AAGGC	0.518 ± 0.013	1.93 ± 0.046	1.89 ± 0.079	0.476 ± 0.023
AAGGA	0.338 ± 0.022	2 ± 0.025	1.43 ± 0.099	0.8561 ± 0.0071
AAGGU	0.228 ± 0.0068	1.94 ± 0.047	1.72 ± 0.044	0.445 ± 0.067
AAGGG	0.3836 ± 0.0021	1.85 ± 0.028	1.75 ± 0.037	0.381 ± 0.037
CACGA	0.805 ± 0.037	1.998 ± 0.0074	1.76 ± 0.036	0.917 ± 0.012
CACGC	0.917 ± 0.026	2.04 ± 0.065	1.996 ± 0.013	1.04 ± 0.043
GACGG	0.642 ± 0.057	1.93 ± 0.045	1.71 ± 0.11	0.887 ± 0.096
GACGU	0.7517 ± 0.0053	1.93 ± 0.027	1.64 ± 0.15	1.03 ± 0.022
AACGU	0.773 ± 0.075	1.965 ± 0.017	1.793 ± 0.011	0.854 ± 0.2
AACGA	0.235 ± 0.038	1.96 ± 0.1	1.53 ± 0.17	0.536 ± 0.026
AACGC	0.98544 ± 0.00052	2.135 ± 0.0047	1.94 ± 0.072	0.922 ± 0.023
AACGG	0.852 ± 0.14	2 ± 0.049	1.8 ± 0.057	0.998 ± 0.083

Variant	FACS-Seq fitted mean (log10) (theophylline [1])	normalized RNA/DNA level with ligand (log10) (theophylline [2])	normalized RNA/DNA level without ligand (log10) (theophylline [3])	FACS-Seq fitted mean (log10) (theophylline [4])
GAAUU	0.234 ± 0.038	2.02 ± 0.045	1.75 ± 0.018	0.4307 ± 0.002
GAAUA	1.08 ± 0.19	1.85 ± 0.068	1.627 ± 0.0033	0.942 ± 0.085
GAAUG	0.627 ± 0.023	1.9 ± 0.028	1.6 ± 0.093	0.713 ± 0.037
GAAUC	0.7173 ± 0.0037	1.962 ± 0.011	1.855 ± 0.015	0.683 ± 0.059
AAGCG	0.683 ± 0.068	2 ± 0.075	1.96 ± 0.067	0.7793 ± 0.0014
AAGCA	0.538 ± 0.016	2.03 ± 0.051	1.8 ± 0.033	0.682 ± 0.023
AAGCU	0.983 ± 0.1	2.05 ± 0.094	1.78 ± 0.077	1.11 ± 0.11
AAGCC	0.748 ± 0.02	2.03 ± 0.089	2.01 ± 0.071	0.7196 ± 0.0051
UACCG	1.2 ± 0.1	2.01 ± 0.067	2 ± 0.032	1.09 ± 0.086
UACCC	0.622 ± 0.13	2.02 ± 0.026	2.04 ± 0.048	0.599 ± 0.045
UACCA	0.405 ± 0.01	1.9 ± 0.086	1.82 ± 0.098	0.436 ± 0.11
UACCU	-0.0361 ± 0.0029	1.988 ± 0.00013	1.99 ± 0.099	0.0166 ± 0.074
GAGCU	0.479 ± 0.21	1.96 ± 0.14	1.8 ± 0.11	0.5269 ± 0.0042
GAGCC	0.935 ± 0.11	1.953 ± 0.015	1.849 ± 0.013	0.918 ± 0.019
GAGCG	0.793 ± 0.054	1.94 ± 0.066	1.79 ± 0.033	0.81 ± 0.05
UAACU	0.803 ± 0.036	2 ± 0.14	1.89 ± 0.02	0.716 ± 0.1
UAACC	0.589 ± 0.058	1.92 ± 0.025	1.92 ± 0.04	0.702 ± 0.061
UAACG	0.784 ± 0.07	1.99 ± 0.04	1.87 ± 0.18	0.711 ± 0.018
AAAUU	0.984 ± 0.045	2.02 ± 0.1	1.82 ± 0.082	1.05 ± 0.06
AAAUA	0.6481 ± 0.0057	1.99 ± 0.038	1.62 ± 0.16	0.806 ± 0.062
AAAUC	0.4981 ± 0.0025	1.89 ± 0.034	1.9 ± 0.099	0.511 ± 0.021
AAAUG	0.571 ± 0.038	2.03 ± 0.022	1.75 ± 0.054	0.607 ± 0.029
AAUAC	0.997 ± 0.065	1.95 ± 0.045	1.85 ± 0.084	1.061 ± 0.0058
AAUAA	-0.00162 ± 0.092	1.88 ± 0.051	1.33 ± 0.021	0.509 ± 0.039

Variant	FACS-Seq fitted mean (log10) (theophylline [1])	normalized RNA/DNA level with ligand (log10) (theophylline [2])	normalized RNA/DNA level without ligand (log10) (theophylline [3])	FACS-Seq fitted mean (log10) (theophylline [4])
UACUC	0.1 ± 0.14	2.1 ± 0.021	2.02 ± 0.039	0.351 ± 0.022
UACUA	0.959 ± 0.069	1.97 ± 0.11	1.67 ± 0.042	1.05 ± 0.071
UACUG	0.382 ± 0.044	1.9807 ± 0.00035	1.94 ± 0.04	0.421 ± 0.12
UACUU	0.59 ± 0.079	2.01 ± 0.023	1.9 ± 0.041	0.754 ± 0.026
GAGGG	0.948 ± 0.031	1.91 ± 0.22	1.67 ± 0.03	1.07 ± 0.07
UAGAU	0.687 ± 0.045	2.02 ± 0.036	1.8244 ± 0.0014	0.828 ± 0.09
UAGAC	0.814 ± 0.036	1.91 ± 0.03	1.91 ± 0.09	0.723 ± 0.008
UAGAA	-0.0982 ± 0.13	1.91 ± 0.11	1.43 ± 0.016	0.448 ± 0.028
UAGAG	0.823 ± 0.13	1.94 ± 0.063	1.73 ± 0.093	0.842 ± 0.013
UAAUC	0.913 ± 0.018	1.9 ± 0.047	1.94 ± 0.098	0.9083 ± 0.0059
UAAUA	0.553 ± 0.011	2.03 ± 0.11	1.56 ± 0.15	0.868 ± 0.015
UAAUG	0.816 ± 0.076	1.929 ± 0.0084	1.814 ± 0.0095	0.887 ± 0.071
UAAUU	0.64 ± 0.039	2 ± 0.023	1.84 ± 0.062	0.613 ± 0.056
AAAGC	1.03 ± 0.054	2.03 ± 0.041	1.79 ± 0.043	1.04 ± 0.14
AAAGG	0.199 ± 0.022	1.976 ± 0.019	1.71 ± 0.033	0.426 ± 0.04
AAAGA	-0.192 ± 0.043	1.92 ± 0.08	1.32 ± 0.06	0.259 ± 0.0043
AAAGU	0.9033 ± 0.0058	1.923 ± 0.018	1.58 ± 0.018	1.1 ± 0.046
GACCU	1.03 ± 0.1	1.99 ± 0.064	1.95 ± 0.06	1.03 ± 0.15
GAGAU	0.787 ± 0.038	1.97 ± 0.038	1.73 ± 0.074	0.958 ± 0.062
GAGAA	0.48 ± 0.017	1.91 ± 0.15	1.41 ± 0.11	0.7667 ± 0.00081
UAAGA	-0.11 ± 0.071	1.9752 ± 0.00034	1.48 ± 0.16	0.22 ± 0.072
UAAGG	0.645 ± 0.086	2.1 ± 0.067	1.89 ± 0.041	0.739 ± 0.044
UAAGC	1.08 ± 0.011	1.94 ± 0.059	1.92 ± 0.1	1.04 ± 0.073
UAAGU	0.651 ± 0.24	2.03 ± 0.044	1.86 ± 0.088	0.751 ± 0.013

From the supplement of paper PMC6757056
